The target of experiment [1] is T1, human soluble IL-6R (human, UniProt P08887 20-357, limits assumed).
T1 construct: Soluble form; also called sIL6R; Human IL-6R
T1 sequence (looked up): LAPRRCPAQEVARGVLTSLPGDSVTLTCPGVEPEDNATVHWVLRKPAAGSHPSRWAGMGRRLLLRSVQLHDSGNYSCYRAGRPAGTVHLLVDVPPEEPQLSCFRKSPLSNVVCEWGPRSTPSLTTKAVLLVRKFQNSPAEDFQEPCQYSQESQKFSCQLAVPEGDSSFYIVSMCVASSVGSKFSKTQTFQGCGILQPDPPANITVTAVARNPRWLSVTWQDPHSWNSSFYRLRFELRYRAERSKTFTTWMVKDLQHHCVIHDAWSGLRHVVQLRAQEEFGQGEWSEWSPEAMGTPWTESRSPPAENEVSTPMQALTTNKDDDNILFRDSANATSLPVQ
The experiment in a line: SPR (Biacore T200), antibody captured on Protein G, human IL-6R as analyte, 37 degrees C, no albumin. The procedure:
Binding activities of the produced albumin switch molecules against human IL-6R were evaluated using Biacore T200 (Cytiva). As the running buffer, 50 mM Na Phosphate (pH 7.4), 150 mM NaCl, 0.05% Tween20 was used, and the evaluation was performed at 37 degrees C. First, Protein G (CALBIOCHEM) was used as a ligand-capturing molecule. Protein G (CALBIOCHEM) was solid-phased on a Series S Sensor Chip CM4 (Cytiva) using an Amine Coupling Kit (Cytiva). Antibody solution prepared using the running buffer was allowed to interact with this CM4 sensor chip to capture approximately 200 RU of the antibody. Human IL-6R used in the present measurement was prepared by an approach described in WO2018097307 (Example 3-2). Human IL-6R was diluted to 0, 100, and 400 nM with the running buffer, and allowed to bind to the captured antibody. The chip was regenerated using 3 M MgCl₂, and measurements were performed by repeatedly capturing the antibodies. Dissociation constant (KD) of each antibody for human IL-6R was calculated using Biacore T200 Evaluation Software 2.0. Specifically, the association rate constant ka (L/mol/s) and the dissociation rate constant kd (1/s) were calculated by global fitting of the sensorgrams obtained by measurement with the 1:1 Langmuir binding model, and the dissociation constant KD (mol/L) was calculated from these values.
Background: Surface plasmon resonance follows binding to a sensor surface in real time, without labels.

Experiment [2] deals with T1, human soluble IL-6R. The experiment in a line: Gyrolab xP immunoassay of antibody-antigen complex in C57BL/6J mouse plasma (albumin present), 1 nM antibody, 4 nM antigen.
Experiment [3] deals with T1, human soluble IL-6R. The experiment in a line: in vivo KD in mouse plasma (albumin present), from total antibody, free and bound sIL6R 5 min after sIL6R; antibody 1 mg/kg IV. The method, then:
(§1) Next, free sIL6R in plasma was measured. The concentration of free sIL6R in plasma was measured on a fully automated ELISA system (Gyrolab xP workstation). First, sIL6R prepared at 23.4, 46.9, 93.8, 188, 375, 750, and 1500 ng/mL using a Protein-Free (PBS) Blocking Buffer (Thermo Scientific) was used as solutions for preparing the calibration curve. Mouse plasma samples were used in the measurements without diluting them. A solution of biotin-labeled H54 diluted to 10 micro g/mL using a Protein-Free (PBS) Blocking Buffer was used as a solution of the sIL6R-capturing molecule. Alexa Fluor (registered trademark) 647-labeled anti-human IL-6R antibody (R&D Systems) diluted to 1 micro g/mL using a Protein-Free (PBS) Blocking Buffer was used as a solution of the human IL-6R-detection molecule. PBS (pH 7.4) containing 0.05% TWEEN was used as a washing solution. The calibration curve solutions, mouse plasma samples, sIL6R-capturing molecule solution, sIL6R-detection molecule solution, and the washing solution were placed onto a PCR plate, and then the PCR plate was sealed with a plate sealer. After the PCR plate and the Bioaffy 200 disc were placed in the Gyrolab xP workstation, measurements were taken. Using the data processed by the Gyros Evaluater 3.6.2.30 software and the calibration curve concentrations, the concentration of free sIL6R in plasma was calculated by logistic regression using the XLfit 5.5.0.5 software.
Additionally, bound sIL6R in plasma was measured. The concentration of bound sIL6R in plasma was measured on an electrospray ionization mass spectrometer connected to a high-performance liquid chromatography (LC/ESI-MS/MS). First, H54//IC17 and sIL6R were mixed, and solutions for preparing the calibration curve of bound sIL6R were prepared at theoretical plasma concentrations of 0.0468, 0.467, 4.60, and 20.1 nmol/mL. The solutions for preparing the calibration curve and 1 or 2 micro L of a plasma sample were added to 75 or 150 micro g of magnetic beads (Magnosphere MS300/Carboxyl, JSR) to which anti-delta GK antibodies were solid-phased, and this was shaken at 25 degrees C. for one hour.

In experiment [4] the target is T2, human albumin (human, UniProt P02768 25-609).
T2 construct: also called albumin in human plasma
The experiment in a line: inferred from reduced antigen complex in human plasma (Gyrolab xP).

Experiment [5] has as its target T3, rat albumin (rat, UniProt P02770 25-608).
T3 construct: also called albumin in SD rat plasma
The experiment in a line: inferred from reduced antigen complex in rat plasma (Gyrolab xP).

The target of experiment [6] is T1, human soluble IL-6R. The experiment in a line: in vivo KD in mouse plasma (albumin present), from total antibody, free and bound sIL6R 5 min after sIL6R; antibody 0.2 mg/kg IV. The procedure: as §1
Additionally, bound sIL6R in plasma was measured. The concentration of bound sIL6R in plasma was measured on an electrospray ionization mass spectrometer connected to a high-performance liquid chromatography (LC/ESI-MS/MS). First, H54//IC17 and sIL6R were mixed, and solutions for preparing the calibration curve of bound sIL6R were prepared at theoretical plasma concentrations of 0.0468, 0.467, 4.60, and 20.1 nmol/mL. […]

The target in experiment [7] is T4, mouse albumin (mouse, UniProt P07724 25-608).
T4 construct: also called recombinant mouse Albumin; mouse serum albumin
The experiment can be described thus: SPR (Biacore T200), antibody captured by anti-human Fc antibody, mouse albumin as analyte, 25 degrees C. The procedure:
Binding activities of the produced antibodies against mouse albumin were evaluated using Biacore T200 (Cytiva).
As the running buffer, 50 mM Na Phosphate (pH 7.4), 150 mM NaCl, 0.05% Tween20 was used, and the evaluation was performed at 25 degrees C. First, anti-human Fc antibody (Cytiva) was used as a ligand-capturing molecule. Anti-human Fc antibody (Cytiva) was solid-phased on a Series S Sensor Chip CM4 (Cytiva) using an Amine Coupling Kit (Cytiva). Antibody solution prepared using the running buffer was allowed to interact with this CM4 sensor chip to capture approximately 120 RU of the antibody. Mouse albumin (Bioscience) was diluted to 0 and 300 nM with the running buffer and allowed to bind to the captured antibody. The chip was regenerated using 3 M MgCl₂, and measurements were performed by repeatedly capturing the antibodies. Dissociation constant (KD) of each antibody for mouse albumin was calculated using Biacore T200 Evaluation Software 2.0. Specifically, the association rate constant ka (L/mol/s) and the dissociation rate constant kd (1/s) were calculated by global fitting of the sensorgrams obtained by measurement with the 1:1 Langmuir binding model, and the dissociation constant KD (mol/L) was calculated from these values.

The values below come from patent US20260209363A1 (Chugai, published 2026).

What is called Kd is a measure of binding affinity in units of concentration. A high value points to a looser complex. The term koff denotes the rate constant with which the complex falls apart. The low end stands for a long-lived complex, the high end for a short-lived complex. For orientation: kon means the second-order rate constant of association.

T3 sequence (P02770 25-608 limits assumed): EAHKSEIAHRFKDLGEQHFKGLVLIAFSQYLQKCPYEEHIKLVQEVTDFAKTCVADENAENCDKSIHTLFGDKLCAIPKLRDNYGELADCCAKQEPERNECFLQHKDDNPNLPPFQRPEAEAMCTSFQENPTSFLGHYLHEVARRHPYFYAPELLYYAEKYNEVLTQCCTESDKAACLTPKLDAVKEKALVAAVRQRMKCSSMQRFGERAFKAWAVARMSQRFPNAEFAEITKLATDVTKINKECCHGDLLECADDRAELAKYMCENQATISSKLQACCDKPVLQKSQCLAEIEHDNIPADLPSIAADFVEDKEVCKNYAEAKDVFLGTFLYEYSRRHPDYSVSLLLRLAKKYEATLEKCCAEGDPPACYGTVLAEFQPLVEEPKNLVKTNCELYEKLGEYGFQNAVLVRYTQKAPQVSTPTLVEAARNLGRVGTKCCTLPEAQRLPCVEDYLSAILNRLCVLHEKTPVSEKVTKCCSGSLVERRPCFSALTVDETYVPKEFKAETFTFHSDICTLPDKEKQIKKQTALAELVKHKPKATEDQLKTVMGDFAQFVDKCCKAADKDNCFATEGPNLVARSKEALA
T2 sequence (P02768 25-609 limits assumed): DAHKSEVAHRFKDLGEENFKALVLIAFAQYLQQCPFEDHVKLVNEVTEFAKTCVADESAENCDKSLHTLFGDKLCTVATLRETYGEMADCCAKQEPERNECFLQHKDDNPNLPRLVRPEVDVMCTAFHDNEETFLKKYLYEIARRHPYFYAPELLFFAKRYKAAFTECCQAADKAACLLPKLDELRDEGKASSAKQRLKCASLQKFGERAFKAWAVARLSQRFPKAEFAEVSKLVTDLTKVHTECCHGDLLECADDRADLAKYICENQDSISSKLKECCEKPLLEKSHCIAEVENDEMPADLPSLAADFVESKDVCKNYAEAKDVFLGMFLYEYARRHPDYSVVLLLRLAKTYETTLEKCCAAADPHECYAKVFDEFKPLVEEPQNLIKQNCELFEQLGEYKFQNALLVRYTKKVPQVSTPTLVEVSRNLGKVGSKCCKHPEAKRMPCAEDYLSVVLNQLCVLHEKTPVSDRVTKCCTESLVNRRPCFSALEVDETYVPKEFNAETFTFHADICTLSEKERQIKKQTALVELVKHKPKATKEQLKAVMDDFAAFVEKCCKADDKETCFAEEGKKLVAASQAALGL

B1: ABD094(H/L)-H54//IC17 (bispecific antibody, human IgG1, kappa)
heavy 1: LAEAKEAANAELDSYGVSDFYKRLIDKAKTVEGVEALKDAILAALPQVQLQESGPGLVKPSETLSLTCAVSGYSISDDQAWSWVRQPPGEGLEWIGYISYSGITNYNPSLKGRVTISRDTSKNQFSLKLSSVTAADTAAYYCARSLARTTAMDYWGEGTLVTVSSASTKGPSVFPLAPSSKSTSGGTAALGCLVEDYFPEPVTVSWNSGALTSGVHTFPAVLQSSGLYSLSSVVTVPSSSLGTQTYICNVNHKPSNTKVDERVEPKSCDKTHTCPPCPAPELRRGPSVFLFPPKPKDTLMISRTPEVTCVVVDVSHEDPEVKFNWYVDGVEVHNAKTKPREEQYNSTYRVVSVLTVLHQDWLNGKEYKCKVSNKALPAPIEKTISKAKGQPREPQVCTLPPSREEMTKNQVSLSCAVKGFYPSDIAVEWESNGQPENNYKTTPPVLDSDGSFFLVSKLTVDKSRWQQGNVFSCSVMHEALHNHYTQKSLSLSP
light 1: LAEAKEAANAELDSYGVSDFYKRLIDKAKTVEGVEALKDAILAALPDIQMTQSPSSLSASVGDSVTITCQASQDISSYLNWYQQKPGKAPELLIYYGSELHSGVPSRFSGSGSGTDFTFTISSLEAEDAATYYCQQGNSLPYTFGQGTKVEIERTVAAPSVFIFPPSDRKLKSGTASVVCLLNNFYPREAKVQWKVDNALQSGNSQESVTEQDSKDSTYSLSSTLTLSKADYEKHKVYACEVTHQGLSSPVTKSFNRGEC
heavy 2: not shown
light 2: QVQLQQSGPQLVRPGASVKISCKASGYSFTSYWMHWVNQRPGQGLEWIGMIDPSYSETRLNQKFKDKATLTVDKSSSTAYMQLSSPTSEDSAVYYCALYGNYFDYWGQGTTLTVSSASVAAPSVFIFPPSDEQLKSGTASVVCLLNNFYPREAKVQWKVDNALQSGNSQESVTEQDSKDSTYSLSSTLTLSKADYEKHKVYACEVTHQGLSSPVTKSFNRGEC
notes: also called anti-IL6R albumin switch molecule
As for B1, the Kd stood at 3.7 nM in experiment [1], 306 nM in experiment [3], 141 nM in experiment [6] and 19.4 nM in experiment [7]. The off-rate (koff) in experiment [1] worked out at 0.000779 s⁻¹; in experiment [7] it was 0.00112 s⁻¹. Also, the kon in experiment [1] was 210000 M⁻¹ s⁻¹; in experiment [7], 57600 M⁻¹ s⁻¹. Further, in experiment [2], the “decrease in the signal derived from the complex, compared to H54//IC17” value worked out at 95%. In addition, the binding result in experiment [4] and in experiment [5] was “binds” each time.

B2: ABP(H/L).N13-H54//IC17 (bispecific antibody, human IgG1, kappa)
heavy 1: QRLMEDICLPRWGCLWEDDFGGGSQVQLQESGPGLVKPSETLSLTCAVSGYSISDDQAWSWVRQPPGEGLEWIGYISYSGITNYNPSLKGRVTISRDTSKNQFSLKLSSVTAADTAAYYCARSLARTTAMDYWGEGTLVTVSSASTKGPSVFPLAPSSKSTSGGTAALGCLVEDYFPEPVTVSWNSGALTSGVHTFPAVLQSSGLYSLSSVVTVPSSSLGTQTYICNVNHKPSNTKVDERVEPKSCDKTHTCPPCPAPELRRGPSVFLFPPKPKDTLMISRTPEVTCVVVDVSHEDPEVKFNWYVDGVEVHNAKTKPREEQYNSTYRVVSVLTVLHQDWLNGKEYKCKVSNKALPAPIEKTISKAKGQPREPQVCTLPPSREEMTKNQVSLSCAVKGFYPSDIAVEWESNGQPENNYKTTPPVLDSDGSFFLVSKLTVDKSRWQQGNVFSCSVMHEALHNHYTQKSLSLSP
light 1: QRLMEDICLPRWGCLWEDDFGGGSDIQMTQSPSSLSASVGDSVTITCQASQDISSYLNWYQQKPGKAPELLIYYGSELHSGVPSRFSGSGSGTDFTFTISSLEAEDAATYYCQQGNSLPYTFGQGTKVEIERTVAAPSVFIFPPSDRKLKSGTASVVCLLNNFYPREAKVQWKVDNALQSGNSQESVTEQDSKDSTYSLSSTLTLSKADYEKHKVYACEVTHQGLSSPVTKSFNRGEC
heavy 2: not shown
light 2: B1 light 2
notes: also called ABP(H/L)-H54//IC17
Regarding B2, the Kd in experiment [1] was determined as 2.02 nM; in experiment [3], 13.4 nM; in experiment [6], 2 nM; in experiment [7], 10.2 nM. The dissociation rate constant (koff) in experiment [1] turned out to be 0.000951 s⁻¹; in experiment [7], 0.000443 s⁻¹. The kon in experiment [1] amounted to 471000 M⁻¹ s⁻¹; in experiment [7], 43500 M⁻¹ s⁻¹. Also, the binding result in experiment [4] and in experiment [5] was “binds” each time.
